{"source": "patent US20230235004A1", "about": "(published 2023)", "binders": {"B1": {"name": "MAdCAM Antibody Table 2 clone 26 (antibody, V domains shown)", "VH": "EVQLLESGGGLVQPGGSLRLSCAASGFTFSSYAMSWVRQAPGKGLEWVSYISSSSTYTNYADSVKGRFTISRDNSKNTLYLQMNSLRAEDTAVYYCARANSSSWYDWYFDLWGQGTLVTVSS", "VL": "not shown", "notes": "IgG format"}, "B2": {"name": "MAdCAM Antibody Table 2 clone 27 (antibody, V domains shown)", "VH": "B1 VH with A33Q", "VL": "not shown", "notes": "IgG format"}, "B3": {"name": "MAdCAM Antibody Table 2 clone 9 (antibody, V domains shown)", "VH": "QVQLVQSGAEVKKPGASVKVSCKASGYTFTSYYMHWVRQAPGQGLEWMGIINHSGGSTSYAQKFQGRVTMTRDTSTSTVYMELSSLRSEDTAVYYCARPYSGWYFAFDIWGQGTLVTVSS", "VL": "not shown", "notes": "IgG format"}, "B4": {"name": "MAdCAM Antibody Table 2 clone 15 (antibody, V domains shown)", "VH": "QVQLVQSGAEVKKPGASVKVSCKASGYTFTGYYMHWVRQAPGQGLEWMGWIGPNSGDTNYAQKFQGRVTMTRDTSTSTVYMELSSLRSEDTAVYYCARDLDHNWYFDLWGRGTLVTVSS", "VL": "DIVMTQSPLSLPVTPGEPASISCRSSQSLLHSNGYNYLDWYLQKPGQSPQLLIYSSSNRAPGVPDRFSGSGSGTDFTLKISRVEAEDVGVYYCMQALHIPLTFGGGTKVEIK", "notes": "IgG format"}, "B5": {"name": "MAdCAM Antibody Table 2 clone 13 (antibody, V domains shown)", "VH": "QVQLVQSGAEVKKPGASVKVSCKASGYTFTTYYMHWVRQAPGQGLEWMGGFDPEDGETIYAQKFQGRVTMTRDTSTSTVYMELSSLRSEDTAVYYCARHAVAGAVGAGYYYYGMDVWGQGTMVTVSS", "VL": "DIQMTQSPSSLSASVGDRVTITCRASESISNWLAWYQQKPGKAPKLLIYAASTLQSGVPSRFSGSGSGTDFTLTISSLQPEDFATYYCQQSYSVPFTFGPGTKVDIK", "notes": "IgG format"}, "B6": {"name": "MAdCAM Antibody Table 2 clone 1 (antibody, V domains shown)", "VH": "EVQLLESGGGLVQPGGSLRLSCAASGFTFSSYGMHWVRQAPGKGLEWVAVISDDGSDKYYADSVKGRFTISRDNSKNTLYLQMNSLRAEDTAVYYCTTSKYYYYYGMDVWGQGTTVTVSS", "VL": "DIQMTQSPSSLSASVGDRVTITCQASQDISKSLNWYQQKPGKAPKLLIYAASSLQSGVPSRFSGSGSGTDFTLTISSLQPEDFATYYCQQGYSTPLTFGGGTKVEIK", "notes": "IgG format"}, "B7": {"name": "MAdCAM Antibody Table 2 clone 40 (antibody, V domains shown)", "VH": "QVQLVQSGAEVKKPGASVKVSCKASGYTLTTWYMYWVRQAPGQGLEWMGWINPNRGATNYAQKFQGRVTMTRDTSTSTVYMELSSLRSEDTAVYYCAKGDLWGAMDVWGQGTLVTVSS", "VL": "B6 VL with Q24R, Q27D, D28N, S30G, K31S, S32W, N34A, L96P, G100Q", "notes": "IgG format"}, "B8": {"name": "MAdCAM Antibody Table 2 clone 25 (antibody, V domains shown)", "VH": "EVQLLESGGGLVQPGGSLRLSCAASGFTFSNAWMSWVRQAPGKGLEWVSTIVGNGGATYYADSVKGRFTISRDNSKNTLYLQMNSLRAEDTAVYYCARDNPLRWQGMDVWGQGTLVTVSS", "VL": "B5 VL with E27Q, S28D, W32Y, A34N, T53S, V94I, F96P", "notes": "IgG format"}, "B9": {"name": "MAdCAM Antibody Table 2 clone 37 (antibody, V domains shown)", "VH": "EVQLLESGGGLVQPGGSLRLSCAASGFTFSDYGMPWVRQAPGKGLEWVSAISGSGGSTYYADSVKGRFTISRDNSKNTLYLQMNSLRAEDTAVYYCARDGGWQPAAILDYWGQGTLVTVSS", "VL": "B6 VL with Q24R, D28G, K31N, S32N, A50D, S53N, Q55E, S56T, G91S, G100Q", "notes": "IgG format"}, "B10": {"name": "MAdCAM Antibody Table 2 clone 12 (antibody, V domains shown)", "VH": "B7 VH", "VL": "B6 VL with Q24R, Q27D, D28N, S30G, K31S, S32W, N34A, L96P, G100Q", "notes": "IgG format"}, "B11": {"name": "MAdCAM Antibody Table 2 clone 16 (antibody, V domains shown)", "VH": "EVQLLESGGGLVQPGGSLRLSCAASGFTFDDYAMHWVRQAPGKGLEWVSYIDASGTTIYYADSVKGRFTISRDNSKNTLYLQMNSLRAEDTAVYYCAKDQAAAGYWYFDLWGRGTLVTVSS", "VL": "B6 VL with K31N, S32Y, A50K, S53T, Q55E, G91S, L96I, G100Q, K103R, V104L", "notes": "IgG format"}, "B12": {"name": "MAdCAM Antibody Table 2 clone 32 (antibody, V domains shown)", "VH": "B7 VH", "VL": "B6 VL with Q24R, Q27D, D28N, S30G, K31S, S32W, N34A, L96P, G100Q", "notes": "IgG format"}, "B13": {"name": "MAdCAM Antibody Table 2 clone 59 (antibody, V domains shown)", "VH": "B9 VH with T28S, P35H", "VL": "B6 VL with Q24R, D28G, K31N, S32N, A50D, S53N, Q55E, S56T, G91S", "notes": "IgG format"}, "B14": {"name": "MAdCAM Antibody Table 2 clone 33 (antibody, V domains shown)", "VH": "B7 VH with L113T", "VL": "B6 VL with Q24R, Q27D, D28N, S30G, K31S, S32W, N34A, L96P, G100Q", "notes": "IgG format"}, "B15": {"name": "MAdCAM Antibody Table 2 clone 10 (antibody, V domains shown)", "VH": "EVQLLESGGGLVQPGGSLRLSCAASGFMFGDYAMHWVRQAPGKGLEWVSAISGSGGSTYYADSVKGRFTISRDNSKNTLYLQMNSLRAEDTAVYYCAKDLVVAGIWYFDLWGRGTLVTVSS", "VL": "DIQMTQSPSSLSASVGDRVTITCRASQGISNNLNWYQQKPGKAPKLLIYDASSLESGVPSRFSGSGSGTDFTLTISSLQPEDFATYYCQQTHSFPSTFGQGTKLEIK", "notes": "IgG format"}, "B16": {"name": "MAdCAM Antibody Table 2 clone 18 (antibody, V domains shown)", "VH": "QVQLVQSGAEVKKPGSSVKVSCKASGYTFTNYYMHWVRQAPGQGLEWMGGIIPIVDRVKYAQKFQGRVTITADESTSTAYMELSSLRSEDTAVYYCAKGRYTVNYYYGMDVWGQGTTVTVSS", "VL": "DIQMTQSPSSLSASVGDRVTITCQANQDISNYLNWYQQKPGKAPKLLIYRASKLEAGVPSRFSGSGSGTDFTLTISSLQPEDFATYYCQQSSEIPYSFGQGTKLEIK", "notes": "IgG format"}, "B17": {"name": "MAdCAM Antibody Table 2 clone 21 (antibody, V domains shown)", "VH": "EVQLVESGGGLVKPGGSLRLSCAASGFTFSSYWMSWVRQAPGKGLEWVSYISGDSGYTNYAAPVKGRFTISRDDSKNTLYLQMNSLKTEDTAVYYCARANSSGWYDWYFDLWGRGTLVTVSS", "VL": "not shown", "notes": "IgG format"}, "B18": {"name": "MAdCAM Antibody Table 2 clone 45 (antibody, V domains shown)", "VH": "EVQLVESGGGLVKPGGSLRLSCAASGFTFGDYAMSWVRQAPGKGLEWVSYISGDIGYTNYAAPVKGRFTISRDDSKNTLYLQMNSLKTEDTAVYYCARDVAATGNWYFDLWGRGTLVTVSS", "VL": "not shown", "notes": "IgG format"}, "B19": {"name": "MAdCAM Antibody Table 2 clone 19 (antibody, V domains shown)", "VH": "EVQLLESGGGLVQPGGSLRLSCAASGFTFEDYAMHWVRQAPGKGLEWVSYLNSDGGSTSYADSVKGRFTISRDNSKNTLYLQMNSLRAEDTAVYYCAKDYCTNGVCAFDYWGQGTLVTVSS", "VL": "DIQMTQSPSSLSASVGDRVTITCRASQSISTYLNWYQQKPGKAPKLLIYDASNLETGVPSRFSGSGSGTDFTLTISSLQPEDFATYYCQQSYTIPITFGQGTRLEIK", "notes": "IgG format"}, "B20": {"name": "MAdCAM Antibody Table 2 clone 34 (antibody, V domains shown)", "VH": "QVQLVQSGAEVKKPGASVKVSCKASGYTFTGYYIHWVRQAPGQGLEWMGWMNPNSGNTGYAQKFQGRVTMTRDTSTSTVYMELSSLRSEDTAVYYCARDPGFLGYCSGGSCYDGWFDPWGQGTLVTVSS", "VL": "B19 VL with T31S, N34H, D50A, N53S, E55Q, T56S, I94A, I96Y, R103K", "notes": "IgG format"}, "B21": {"name": "MAdCAM Antibody Table 2 clone 35 (antibody, V domains shown)", "VH": "B20 VH with C106S, C111S", "VL": "B19 VL with T31S, N34H, D50A, N53S, E55Q, T56S, I94A, I96Y, R103K", "notes": "IgG format"}, "B22": {"name": "MAdCAM Antibody Table 2 clone 52 (antibody, V domains shown)", "VH": "EVQLLESGGGLVQPGGSLRLSCAASGFTFDDYGMSWVRQAPGKGLEWVSYISSSSSYIYYADSVKGRFTISRDNSKNTLYLQMNSLRAEDTAVYYCAREIAAAGFYGMDVWGQGTTVTVSS", "VL": "not shown", "notes": "IgG format"}}, "note": "Changes are numbered by the printed parent chain."}
{"biological_target": "T1, mouse MAdCAM expressed on cells (mouse, UniProt Q61826 22-405)", "T1 construct": "whole, on cells", "T1 sequence (looked up)": "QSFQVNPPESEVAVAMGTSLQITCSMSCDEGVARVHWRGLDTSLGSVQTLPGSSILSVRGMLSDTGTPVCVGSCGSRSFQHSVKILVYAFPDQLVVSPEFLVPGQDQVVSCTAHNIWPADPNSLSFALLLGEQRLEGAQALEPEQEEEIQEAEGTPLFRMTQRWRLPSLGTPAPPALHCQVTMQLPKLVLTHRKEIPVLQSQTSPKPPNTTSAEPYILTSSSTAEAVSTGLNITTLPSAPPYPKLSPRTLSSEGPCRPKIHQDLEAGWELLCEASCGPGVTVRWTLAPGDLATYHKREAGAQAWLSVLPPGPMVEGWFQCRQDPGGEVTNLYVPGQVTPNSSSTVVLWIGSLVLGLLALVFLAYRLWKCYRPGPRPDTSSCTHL", "test": "cell binding"}
{"binder": "B1", "binding result": "no binding"}
{"binder": "B2", "binding result": "no binding"}
{"binder": "B3", "binding result": "no binding"}
{"binder": "B4", "binding result": "no binding"}
{"binder": "B5", "binding result": "no binding"}
{"binder": "B6", "binding result": "binds"}
{"binder": "B7", "binding result": "no binding"}
{"binder": "B8", "binding result": "no binding"}
{"binder": "B9", "binding result": "no binding"}
{"binder": "B10", "binding result": "no binding"}
{"binder": "B11", "binding result": "no binding"}
{"binder": "B12", "binding result": "no binding"}
{"binder": "B13", "binding result": "no binding"}
{"binder": "B14", "binding result": "no binding"}
{"binder": "B15", "binding result": "binds"}
{"binder": "B16", "binding result": "no binding"}
{"binder": "B17", "binding result": "no binding"}
{"binder": "B18", "binding result": "no binding"}
{"binder": "B19", "binding result": "no binding"}
{"binder": "B20", "binding result": "no binding"}
{"binder": "B21", "binding result": "no binding"}
{"binder": "B22", "binding result": "no binding"}
{"biological_target": "T2, human MAdCAM expressed on cells (human, UniProt Q13477 19-382)", "T2 construct": "whole, on cells", "T2 sequence (looked up)": "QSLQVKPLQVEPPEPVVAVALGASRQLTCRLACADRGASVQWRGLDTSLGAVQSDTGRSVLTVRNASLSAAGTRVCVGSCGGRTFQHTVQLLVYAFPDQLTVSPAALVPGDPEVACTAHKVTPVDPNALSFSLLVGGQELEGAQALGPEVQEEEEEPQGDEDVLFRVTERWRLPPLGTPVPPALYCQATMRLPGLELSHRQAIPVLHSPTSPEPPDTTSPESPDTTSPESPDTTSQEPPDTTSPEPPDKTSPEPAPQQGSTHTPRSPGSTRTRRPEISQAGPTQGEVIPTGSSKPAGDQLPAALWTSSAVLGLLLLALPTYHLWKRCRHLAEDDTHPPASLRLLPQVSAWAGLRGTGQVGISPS", "test": "cell binding"}
{"binder": "B1", "binding result": "binds"}
{"binder": "B2", "binding result": "binds"}
{"binder": "B4", "binding result": "binds"}
{"binder": "B5", "binding result": "binds"}
{"binder": "B6", "binding result": "binds"}
{"binder": "B8", "binding result": "binds"}
{"binder": "B9", "binding result": "binds"}
{"binder": "B10", "binding result": "binds"}
{"binder": "B11", "binding result": "binds"}
{"binder": "B13", "binding result": "binds"}
{"binder": "B15", "binding result": "binds"}
{"binder": "B16", "binding result": "binds"}
{"binder": "B17", "binding result": "binds"}
{"binder": "B19", "binding result": "binds"}
{"binder": "B20", "binding result": "binds"}
